Experimental data from patent publication US20030162190, “Phosphoromonothioate and phosphorodithioate oligonucleotide aptamer chip for functional proteomics” (published 2003).

Target: NF-kB p65 (RelA) homodimer (UniProt Q04206 Q04206:1-551)
Test: EMSA; competitive EMSA; 5 to 15-fold tighter to p65/p65 than p50 homodimer
Details: chain copies: 2 (stated homodimer)
Procedure: The example used to illustrate that when only one or two dithioate linkages were placed in a molecule, the inhibition/binding of the oligonucleotide to recombinant protein was similar to that of the unsubstituted aptamer illustrates is shown in FIG. 3—as the substitutions of dithiophosphate were increased, binding by the [S₂]-ODN oligonucleotide increased dramatically. For example, in a standard competitive binding assay, ³²P-IgκB promoter element ODN is incubated with recombinant p65 and varying amounts of XBY aptamer competitor. The relative binding ability of the unlabeled ODNs is determined by the concentration needed to effectively compete with the standard labeled ODN. XBY1 through 6 correspond to CK-14 aptamers with 1 through 6 dithiophsphate substitutions, respectively. The present inventors, according to an embodiment of this invention, developed an oligonucleotide containing six dithioate linkages on the two strands, termed XBY-6.
Competitive binding of XBY-6 to p65 homodimers is performed using EMSAs. XBY-6 concentrations are 1.95 (triangle), 3.89 (open circle), and 7.77 (closed circle).

Sequence of NF-kB p65 (RelA) homodimer (Q04206 whole entry, one chain of several): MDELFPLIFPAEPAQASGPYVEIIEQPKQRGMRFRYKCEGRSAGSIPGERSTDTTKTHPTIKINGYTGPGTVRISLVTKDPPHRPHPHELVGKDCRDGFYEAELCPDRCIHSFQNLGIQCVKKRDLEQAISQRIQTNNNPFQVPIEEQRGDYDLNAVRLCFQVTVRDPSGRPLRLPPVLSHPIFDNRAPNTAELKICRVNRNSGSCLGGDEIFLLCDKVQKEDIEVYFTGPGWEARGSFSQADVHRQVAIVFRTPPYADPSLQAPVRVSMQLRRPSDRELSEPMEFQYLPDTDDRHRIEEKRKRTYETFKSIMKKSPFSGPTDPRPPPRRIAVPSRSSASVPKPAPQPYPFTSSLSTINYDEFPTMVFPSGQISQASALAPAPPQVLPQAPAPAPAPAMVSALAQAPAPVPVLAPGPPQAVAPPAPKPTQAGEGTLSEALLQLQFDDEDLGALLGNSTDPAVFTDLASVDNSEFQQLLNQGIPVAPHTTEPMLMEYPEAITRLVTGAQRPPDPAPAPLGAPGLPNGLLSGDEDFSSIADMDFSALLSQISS

B1: XBY-6 (dsDNA)
DNA 1: CCAGGAGATTCCAC
DNA 2: GTGGAATCTCCTGG
modifications: six phosphorodithioate linkages on the two strands, positions shown only in figures
**Q.** For B1, which Kd is on record?
**A.** 1.44 nM
